# Measurements as given in article PMC2330244.
# Read-outs that look alike come from different tables or passages of the source.
# T1: p73α (UniProt O15350 1-636)
# T1 sequence: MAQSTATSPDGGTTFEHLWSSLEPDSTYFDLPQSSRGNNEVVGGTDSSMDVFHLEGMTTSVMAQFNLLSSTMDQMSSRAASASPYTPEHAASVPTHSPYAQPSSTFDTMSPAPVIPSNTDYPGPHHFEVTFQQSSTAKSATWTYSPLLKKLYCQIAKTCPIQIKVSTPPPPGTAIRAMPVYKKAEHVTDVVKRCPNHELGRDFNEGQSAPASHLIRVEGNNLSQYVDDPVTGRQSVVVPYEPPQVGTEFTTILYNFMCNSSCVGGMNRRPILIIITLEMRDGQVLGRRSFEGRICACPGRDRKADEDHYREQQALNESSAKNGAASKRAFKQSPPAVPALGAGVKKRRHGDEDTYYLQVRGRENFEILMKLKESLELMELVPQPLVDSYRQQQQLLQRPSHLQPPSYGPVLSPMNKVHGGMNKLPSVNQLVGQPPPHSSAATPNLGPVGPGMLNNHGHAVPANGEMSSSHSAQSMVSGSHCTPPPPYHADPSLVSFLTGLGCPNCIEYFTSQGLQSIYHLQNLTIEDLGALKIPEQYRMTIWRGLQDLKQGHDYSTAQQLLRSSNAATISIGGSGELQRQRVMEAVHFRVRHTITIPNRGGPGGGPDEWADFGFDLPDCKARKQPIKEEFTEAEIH
# T2: p73γ (UniProt O15350-3 1-475)
# T2 sequence: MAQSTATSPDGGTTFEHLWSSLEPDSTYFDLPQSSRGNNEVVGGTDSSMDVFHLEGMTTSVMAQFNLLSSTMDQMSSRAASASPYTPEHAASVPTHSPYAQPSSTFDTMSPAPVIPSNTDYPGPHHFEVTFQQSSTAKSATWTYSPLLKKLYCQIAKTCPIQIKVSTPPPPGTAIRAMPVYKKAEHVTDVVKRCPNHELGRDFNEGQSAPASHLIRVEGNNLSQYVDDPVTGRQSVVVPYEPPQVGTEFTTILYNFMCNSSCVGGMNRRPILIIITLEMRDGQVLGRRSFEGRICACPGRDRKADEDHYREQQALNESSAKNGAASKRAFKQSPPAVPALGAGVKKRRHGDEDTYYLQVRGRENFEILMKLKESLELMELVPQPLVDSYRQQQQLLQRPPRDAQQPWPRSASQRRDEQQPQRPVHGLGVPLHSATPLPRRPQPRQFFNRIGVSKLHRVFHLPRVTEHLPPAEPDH
# T3: p73β (UniProt O15350-2 1-499)
# T3 sequence: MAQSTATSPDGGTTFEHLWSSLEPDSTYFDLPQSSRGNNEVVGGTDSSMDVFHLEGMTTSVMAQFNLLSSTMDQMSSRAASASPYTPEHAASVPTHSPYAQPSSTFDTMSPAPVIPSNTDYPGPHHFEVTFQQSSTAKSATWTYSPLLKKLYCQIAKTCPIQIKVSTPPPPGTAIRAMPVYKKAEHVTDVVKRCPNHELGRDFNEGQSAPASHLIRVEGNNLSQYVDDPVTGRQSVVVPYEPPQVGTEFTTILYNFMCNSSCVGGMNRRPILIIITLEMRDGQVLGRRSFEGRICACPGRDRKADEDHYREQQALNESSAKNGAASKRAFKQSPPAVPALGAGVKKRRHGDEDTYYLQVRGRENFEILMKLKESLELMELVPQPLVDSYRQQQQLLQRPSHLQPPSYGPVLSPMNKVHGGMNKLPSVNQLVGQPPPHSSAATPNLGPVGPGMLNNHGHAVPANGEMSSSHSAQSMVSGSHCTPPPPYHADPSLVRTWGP
# T4: p73δ (UniProt O15350-4 1-403)
# T4 sequence: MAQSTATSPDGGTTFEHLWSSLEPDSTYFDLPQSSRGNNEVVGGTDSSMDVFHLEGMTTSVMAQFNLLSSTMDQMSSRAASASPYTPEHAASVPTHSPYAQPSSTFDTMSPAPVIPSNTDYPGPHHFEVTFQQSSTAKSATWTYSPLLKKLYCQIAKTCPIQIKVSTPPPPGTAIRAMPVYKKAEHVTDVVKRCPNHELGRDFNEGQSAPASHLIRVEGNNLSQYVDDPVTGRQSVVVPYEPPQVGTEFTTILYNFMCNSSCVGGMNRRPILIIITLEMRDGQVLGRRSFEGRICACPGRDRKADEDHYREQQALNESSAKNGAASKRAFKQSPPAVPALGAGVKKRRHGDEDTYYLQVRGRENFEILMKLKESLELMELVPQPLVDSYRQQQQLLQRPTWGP
# B1: p21-5' site 28 bp (dsDNA)
# DNA 1: TCAGGAACATGTCCCAACATGTTGAGCT
# DNA 2: AGCTCAACATGTTGGGACATGTTCCTGA
# B2: p21-5' site 66 bp (dsDNA)
# DNA 1: AGCATTGGCTTTCTGGCCATCAGGAACATGTCCCAACATGTTGAGCTCTGGCATAGAAGAGGCGCT
# DNA 2: AGCGCCTCTTCTATGCCAGAGCTCAACATGTTGGGACATGTTCCTGATGGCCAGAAAGCCAATGCT
# B3: p53 consensus (dsDNA)
# DNA 1: GGGTAGACATGCCTAGACATGCCTAAGCTCCC
# DNA 2: GGGAGCTTAGGCATGTCTAGGCATGTCTACCC
# What was measured:
# Assay in all cases: EMSA
# p73α [1] = target: T1, p73α
# p73α+30 [2] = target: T5, p73α+30 (UniProt O15350 1-636+P04637:364-393, internal_change)
# p53 [3] = target: T6, p53 (human, UniProt P04637 1-393)
# T6 sequence (P04637 whole entry): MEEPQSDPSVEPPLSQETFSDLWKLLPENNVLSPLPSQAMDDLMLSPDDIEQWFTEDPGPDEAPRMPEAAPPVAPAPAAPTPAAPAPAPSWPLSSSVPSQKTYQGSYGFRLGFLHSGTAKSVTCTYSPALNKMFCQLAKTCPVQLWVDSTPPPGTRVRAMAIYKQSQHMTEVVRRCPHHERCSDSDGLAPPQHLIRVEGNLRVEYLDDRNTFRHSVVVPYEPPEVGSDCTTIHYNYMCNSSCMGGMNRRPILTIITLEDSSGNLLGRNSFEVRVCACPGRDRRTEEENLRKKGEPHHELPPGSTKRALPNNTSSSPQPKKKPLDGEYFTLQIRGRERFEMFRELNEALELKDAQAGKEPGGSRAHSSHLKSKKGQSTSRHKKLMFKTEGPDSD
# p53 [4] = target: T6, p53; remark: listed apart in the source
# p73α+30 [5] = target: T5, p73α+30; remark: listed apart in the source
# p73γ = target: T2, p73γ
# p73α+30 [6] = target: T5, p73α+30; remark: listed apart in the source
# p73β = target: T3, p73β
# p73δ = target: T4, p73δ
# p73α [7] = target: T1, p73α; remark: listed apart in the source
# p53 [8] = target: T6, p53; remark: listed apart in the source
Binder,binding result (p73α [1]),binding signal (p73α+30 [2]),binding result (p53 [3]),binding result (p53 [4]),binding signal (p73α+30 [5]),binding result (p73γ),binding result (p73α+30 [6]),binding result (p73β),binding result (p73δ),binding result (p73α [7]),binding result (p53 [8])
B1,binds,1 fold (reference for 66 bp),binds,–,–,–,–,–,–,–,–
B2,binds,–,–,binds,~5 fold vs 28 bp oligonucleotide,binds,–,–,–,–,–
B3,–,–,–,–,–,–,binds,binds,binds,binds,binds
